These are literature values, as cited in article PMC6194691.

The series has as its target transferrin receptor (Rattus norvegicus) (UniProt Q99376).

pKd: −log10 of the molar value. Where only a bound is given, the exact number is not on record here.

UniProt Q99376, sequence (Q99376 whole entry): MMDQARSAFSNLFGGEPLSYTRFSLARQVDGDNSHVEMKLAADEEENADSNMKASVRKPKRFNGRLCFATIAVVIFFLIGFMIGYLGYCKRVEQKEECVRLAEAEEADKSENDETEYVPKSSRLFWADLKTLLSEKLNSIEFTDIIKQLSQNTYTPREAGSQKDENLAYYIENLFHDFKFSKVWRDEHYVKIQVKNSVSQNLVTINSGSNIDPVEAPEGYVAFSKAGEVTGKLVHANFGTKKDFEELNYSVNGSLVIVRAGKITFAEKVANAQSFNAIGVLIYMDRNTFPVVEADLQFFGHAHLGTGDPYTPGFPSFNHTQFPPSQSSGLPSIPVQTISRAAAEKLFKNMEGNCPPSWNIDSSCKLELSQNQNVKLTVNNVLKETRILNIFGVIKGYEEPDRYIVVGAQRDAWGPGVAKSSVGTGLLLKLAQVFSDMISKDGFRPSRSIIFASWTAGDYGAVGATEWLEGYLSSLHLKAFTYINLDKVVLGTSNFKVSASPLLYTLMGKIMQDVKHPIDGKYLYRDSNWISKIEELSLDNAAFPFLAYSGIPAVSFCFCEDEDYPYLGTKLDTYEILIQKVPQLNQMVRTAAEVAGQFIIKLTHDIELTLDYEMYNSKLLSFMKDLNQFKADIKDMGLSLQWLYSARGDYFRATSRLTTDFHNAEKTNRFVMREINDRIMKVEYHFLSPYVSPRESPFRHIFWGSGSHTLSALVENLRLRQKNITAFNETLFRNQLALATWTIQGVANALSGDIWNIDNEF

The pKd is −log10 of the Kd, conventionally taken in molar units. In the case of apo-transferrin (from UniProt P12346), the pKd was > 7.52.
